Values belong to the molecule of their own block, whether it stands above or below them.
Experiments:
[1] = target: T1, MBP-NtKRP-Motor (Nicotiana tabacum, UniProt A0A0D3QSP8); assay: microtubule co-sedimentation, SDS-PAGE; type: binding; conditions: taxol-stabilised microtubules, PEM buffer with 1 mM MgCl2, pH 6.8; nucleotide 5 µM
T1 construct: gene KRP; MBP-tagged motor domain, purified; motor 1-556 elsewhere
T1 sequence (A0A0D3QSP8 55-470 limits assumed): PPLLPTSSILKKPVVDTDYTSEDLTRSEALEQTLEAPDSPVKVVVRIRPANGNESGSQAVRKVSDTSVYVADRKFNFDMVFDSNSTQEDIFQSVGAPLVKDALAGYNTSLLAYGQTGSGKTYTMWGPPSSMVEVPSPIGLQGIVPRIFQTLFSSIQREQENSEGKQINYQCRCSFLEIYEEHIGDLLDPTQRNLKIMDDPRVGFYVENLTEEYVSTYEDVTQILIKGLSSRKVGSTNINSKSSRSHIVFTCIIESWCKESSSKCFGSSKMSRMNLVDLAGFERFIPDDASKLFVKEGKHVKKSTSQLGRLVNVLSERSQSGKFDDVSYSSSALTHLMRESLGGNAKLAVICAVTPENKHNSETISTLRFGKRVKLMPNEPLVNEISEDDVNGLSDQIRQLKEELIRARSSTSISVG

[2] = target: microtubules (polymerized tubulin, taxol-stabilised); assay: co-sedimentation; 100 uL with 25 ug taxol-stabilised MTs and 50 ug NtKRP-motor in PEM buffer pH 6.8; without nucleotide, with ATP or with AMPPNP; room temperature 30 min, 25,000 x g 20 min at 25 C; SDS-PAGE of supernatant and pellet, Coomassie
[3] = target: microtubules (polymerized tubulin, taxol-stabilised)
[4] = substrate: Nc1ncnc2c1ncn2[C@@H]1O[C@H](COP(=O)(O)OP(=O)(O)OP(=O)(O)O)[C@@H](O)[C@H]1O; assay: isothermal titration calorimetry ATPase assay; type: biochemical, Nicotiana tabacum; conditions: microtubules 4.4 µM (Methods print 1.67 µM MTs), 10 µM taxol, BRB80 with 1 mM MgCl2, 50 mM NaCl, pH 6.8, 25 °C

Molecule: Nc1ncnc2c1ncn2[C@@H]1O[C@H](COP(=O)(O)OP(=O)(O)NP(=O)(O)O)[C@@H](O)[C@H]1O [AMPPNP]
microtubule co-sedimentation, SDS-PAGE [1]: nonhydrolyzable ATP analog AMPPNP was used in place of ATP, most of the fusion protein

Molecule: Nc1ncnc2c1ncn2[C@@H]1O[C@H](COP(=O)(O)OP(=O)(O)OP(=O)(O)O)[C@@H](O)[C@H]1O [ATP]
microtubule co-sedimentation, SDS-PAGE [1]: The addition of ATP significantly reduced the amount of the fusion protein co-sediment

percent coprecipitated with MTs (absence of ATP) [2]: 50%
Molecule: MBP-NtKRP motor domain fusion protein (domain or fragment)

K0.5,MT of the MT-stimulated ATPase activity of the motor domain (coupled enzyme assay, 1 mM ATP, 0-5 uM MTs) [3]: 22 µM
Molecule: recombinant NtKRP motor domain (amino acids 1–556) (domain or fragment)

B1: NtKRP motor domain (recombinant motor protein, amino acids 1–556) (Nicotiana tabacum) (protein)
chain: MSENRFLGNISASSIRNLLPKSVSTKKKLNSSRFKHKMNSENVAPIDPNIQITDPPLLPTSSILKKPVVDTDYTSEDLTRSEALEQTLEAPDSPVKVVVRIRPANGNESGSQAVRKVSDTSVYVADRKFNFDMVFDSNSTQEDIFQSVGAPLVKDALAGYNTSLLAYGQTGSGKTYTMWGPPSSMVEVPSPIGLQGIVPRIFQTLFSSIQREQENSEGKQINYQCRCSFLEIYEEHIGDLLDPTQRNLKIMDDPRVGFYVENLTEEYVSTYEDVTQILIKGLSSRKVGSTNINSKSSRSHIVFTCIIESWCKESSSKCFGSSKMSRMNLVDLAGFERFIPDDASKLFVKEGKHVKKSTSQLGRLVNVLSERSQSGKFDDVSYSSSALTHLMRESLGGNAKLAVICAVTPENKHNSETISTLRFGKRVKLMPNEPLVNEISEDDVNGLSDQIRQLKEELIRARSSTSISVGSNGYFRGPNVRESLNQLRVSLNRSLILPSIDNDREEEIHINEDDIKELQLQIDNLRGSHGDNSKETLEKKDSLKYSSGESEHYLSC
notes: N-terminal motor domain fragment, residues 1-556 of 1194 (full length 134 kDa); recombinant
Km [4]: 2.4 µM
kcat [4]: 80.3 s⁻¹
